{"source": "paper PMC3084679", "about": "(Molecular Biology of the Cell, 2011)", "binders": {"B1": {"name": "GST-Ypt52 (natural protein, S. cerevisiae, UniProt P36018 1-234, looked up)", "chain": "MLQFKLVLLGDSSVGKSSIVHRFVKDTFDELRESTIGAAFLSQSITIHPNDGNETKDVVIKFEIWDTAGQERYKSLAPMYYRNANAALVVYDITQEDSLQKARNWVDELKNKVGDDDLVIYLLGNKVDLCQETPSTETSPDSNEGGDEEQKVRAISTEEAKQYAQEQGLLFREVSAKTGEGVKEIFQDIGEKLYDLKKDEILSKQNRQIGGGNNGQVDINLQRPSTNDPTSCCS"}}, "target": "recombinant Roy1–Skp1 complex (S. cerevisiae, UniProt Q04847 1-553; P52286 1-194)", "sequence (Q04847 whole entry, chain 1 of 2)": "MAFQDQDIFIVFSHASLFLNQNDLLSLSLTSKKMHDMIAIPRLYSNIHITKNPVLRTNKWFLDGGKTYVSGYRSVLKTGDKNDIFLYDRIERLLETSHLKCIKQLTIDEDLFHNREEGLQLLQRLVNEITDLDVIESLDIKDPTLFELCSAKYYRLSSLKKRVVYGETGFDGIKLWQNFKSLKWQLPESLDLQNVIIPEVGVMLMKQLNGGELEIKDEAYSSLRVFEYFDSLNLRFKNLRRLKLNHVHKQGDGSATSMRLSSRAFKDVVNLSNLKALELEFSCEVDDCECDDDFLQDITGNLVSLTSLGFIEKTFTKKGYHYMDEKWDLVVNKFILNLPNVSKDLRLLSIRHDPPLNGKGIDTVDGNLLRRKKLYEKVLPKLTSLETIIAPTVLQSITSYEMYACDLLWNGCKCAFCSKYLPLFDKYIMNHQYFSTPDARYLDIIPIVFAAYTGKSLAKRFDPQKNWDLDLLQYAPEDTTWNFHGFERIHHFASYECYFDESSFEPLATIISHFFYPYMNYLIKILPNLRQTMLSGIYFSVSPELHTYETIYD", "sequence (P52286 whole entry, chain 2 of 2)": "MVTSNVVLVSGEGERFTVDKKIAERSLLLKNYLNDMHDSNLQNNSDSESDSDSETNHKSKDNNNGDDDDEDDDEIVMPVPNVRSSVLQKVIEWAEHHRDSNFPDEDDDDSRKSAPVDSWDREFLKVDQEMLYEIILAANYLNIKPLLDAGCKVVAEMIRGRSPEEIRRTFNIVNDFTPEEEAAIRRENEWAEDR", "test": "pull-down"}
{"binder": "B1", "values": [{"measurement": "binding result", "value": "binds"}]}
